Test results from patent publication US20190062442A1.
pIC50: −log10 of the molar value.

Molecular target: FLAG-tagged human PrP^c_N1 (recombinant N-terminal fragment of cellular prion protein, 23-111 amino-acids) (human) (UniProt P04156)
Sequence (P04156 23-111): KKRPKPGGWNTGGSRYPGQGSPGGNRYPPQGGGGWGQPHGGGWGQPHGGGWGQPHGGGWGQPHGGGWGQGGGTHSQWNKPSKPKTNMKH

Work on “anti-CD230 (Prion) antibody 6D11 Mu IgG2a (BioLegend, San Diego, Calif.)” yielded a pIC50 of 7.76.
